This note sets out measurements from US12365732 (23ANDME, dated 2025).

Assay [1] concerns the target T1, cy-CD226 His tag (cynomolgus monkey, UniProt A0A2K5W1Z6 19-247, biotinylated).
T1 sequence: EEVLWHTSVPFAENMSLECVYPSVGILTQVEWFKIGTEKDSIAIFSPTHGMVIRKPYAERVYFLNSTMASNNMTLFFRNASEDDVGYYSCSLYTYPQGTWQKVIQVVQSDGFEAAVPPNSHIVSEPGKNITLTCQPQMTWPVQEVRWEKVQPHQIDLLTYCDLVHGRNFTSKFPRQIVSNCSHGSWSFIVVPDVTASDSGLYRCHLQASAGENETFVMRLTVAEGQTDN
Kind of assay: SPR 25C, biotin-CD226-His captured, IgG analyte. Here is the method:
(§1) To determine the binding affinity to hu-CD226 and cy-CD226 of mAb1.v7.NGS8, h10G1, hCD155 and anti-hCD226 antibody DX11 (Abcam, cat #Ab33397), SPR measurement with a BIACORE™ 8K instrument was performed. Briefly, a 1:4 dilution of Biotin CAPture Reagent (GE Healthcare) into HBS-EP buffer (0.01 M HEPES pH 7.4, 0.15 M NaCl, 3 mM EDTA, 0.005% Surfactant P20) was applied to the chip at 2 µL/min flow rate. For the kinetics measurements, 5 µg/ml of biotinylated hu-CD226 His tag (Sino biological, cat #10565-H08H) and cy-CD226 His tag (Arco biosystems, cat #DN1-052H9) was captured at 10 µL/min to achieve ~50 response units in the second flow cell (FC2). FC1 was kept as a reference. Next, 3-fold serial dilutions of IgG in HBS-P buffer (0.01 M HEPES pH 7.4, 0.15 M NaCl, 0.005% surfactant P20) from low (1.3 nM) to high (1000 nM) concentration were injected (flow rate: 30 µL/min) at 25° C. The sensorgram was recorded and subject to reference and buffer subtraction before evaluating by BIACORE® 8K Evaluation Software (version 1.1.1.7442). Association rates ($kon$) and dissociation rates ($koff$) were calculated using a simple one-to-one Langmuir binding model. The equilibrium dissociation constant (K_D) value was calculated as the ratio of $koff/kon$. […]

For assay [2], the target named is T2, hu-CD226 His tag (human, UniProt Q15762 19-247, limits assumed, biotinylated).
T2 sequence (looked up): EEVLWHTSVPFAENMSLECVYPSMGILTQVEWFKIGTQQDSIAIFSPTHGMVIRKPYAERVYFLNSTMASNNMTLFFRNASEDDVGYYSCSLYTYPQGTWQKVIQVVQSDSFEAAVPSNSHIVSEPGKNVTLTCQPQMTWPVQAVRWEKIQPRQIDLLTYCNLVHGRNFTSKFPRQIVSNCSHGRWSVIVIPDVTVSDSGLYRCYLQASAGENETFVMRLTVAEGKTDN
Kind of assay: SPR 25C, biotin-CD226-His captured, IgG analyte. Here is the method: as §1

Assay [3] concerns the target T3, hu-CD226 on Expi293 cells (human, UniProt Q15762 19-336).
T3 sequence: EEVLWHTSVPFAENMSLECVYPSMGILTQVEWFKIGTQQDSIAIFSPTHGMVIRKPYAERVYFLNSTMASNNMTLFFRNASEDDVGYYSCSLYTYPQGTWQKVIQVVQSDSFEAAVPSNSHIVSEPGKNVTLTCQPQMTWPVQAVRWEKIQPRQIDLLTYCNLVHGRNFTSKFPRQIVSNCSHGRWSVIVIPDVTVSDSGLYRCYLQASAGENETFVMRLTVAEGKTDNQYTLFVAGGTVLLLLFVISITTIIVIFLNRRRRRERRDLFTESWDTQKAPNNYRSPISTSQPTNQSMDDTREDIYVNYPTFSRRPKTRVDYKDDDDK
Briefly: FACS, CD226-transfected Expi293 cells. Here is the method: In order to assess the generated antibodies for secondary binding to CD226, sequences encoding human CD226 ("hu-CD226") (SEQ ID NO: 482) and cyno CD226 ("cy-CD226") (SEQ ID NO: 483) (see Table 26 and Sequence Listing) were each cloned into pcDNA3.1 expression vector and Expi293 cells were separately transfected with plasmid containing either the hu-CD226 or cy-CD226 coding sequence. Starting concentrations of 1 μM and corresponding 3X serial dilutions of each antibody, NGS8, 10G1, and MABT398 (CD226 positive control, EMD Millipore, Burlington, MA, USA), were prepared for staining. Secondary antibodies employed included goat anti-mouse F(ab)2-PE (Invitrogen, Carlsbad, CA, USA) and goat anti-human F(ab)2-PE (Jackson ImmunoResearch, West Grove, PA, USA).
Samples, each containing one million transfected cells, were stained with primary antibody for 1 hr and secondary antibody for 30 min at 4° C. with agitation. Stained cells were washed in FACS buffer (1% BSA in PBS), fixed in 4% freshly prepared paraformaldehyde, and analyzed by flow cytometry. Ten thousand events were collected for each sample and curves, showing the fold change in CD226 binding, were separately plotted for hu-CD226 (FIG. 12A) and cy-CD226 (FIG. 12B) expressing cells.

Assay [4] deals with T4, hu-CD96 (soluble, isoform 2 extracellular domain) (human, UniProt P40200 22-516, biotinylated in Octet and blocking ELISA).
T4 construct: the assays name only hu-CD96; also called hCD96; biotinylated hu-CD96
T4 sequence: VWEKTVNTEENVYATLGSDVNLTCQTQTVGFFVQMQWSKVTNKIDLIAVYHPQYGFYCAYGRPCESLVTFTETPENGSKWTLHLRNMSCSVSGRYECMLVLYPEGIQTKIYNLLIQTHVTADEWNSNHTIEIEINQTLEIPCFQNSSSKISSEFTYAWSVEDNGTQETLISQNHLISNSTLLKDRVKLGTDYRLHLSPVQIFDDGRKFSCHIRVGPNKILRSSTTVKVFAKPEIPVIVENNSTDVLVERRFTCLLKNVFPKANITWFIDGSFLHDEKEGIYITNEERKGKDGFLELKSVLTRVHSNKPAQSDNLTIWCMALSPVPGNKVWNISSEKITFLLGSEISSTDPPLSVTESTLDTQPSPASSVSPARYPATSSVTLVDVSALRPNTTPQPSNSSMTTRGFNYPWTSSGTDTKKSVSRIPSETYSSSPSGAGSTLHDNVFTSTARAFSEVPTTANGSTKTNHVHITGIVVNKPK
Kind of assay: CD155 blocking ELISA. (An ELISA detects its analyte on a solid surface through an enzyme-linked reagent.)

Assay [5] deals with T4, hu-CD96 (soluble, isoform 2 …). Briefly: BLI (Octet), biotin-CD96 on SA, Fab analyte. Background: BLI is a label-free optical method that tracks binding on a fibre tip over time.

B1: h10G1 IgG (humanized 10G1) (antibody, V domains shown)
VH: EIQLVQSGSELKKPGASVKVSCKASGYPFTTYGMSWVRQAPGQGLEWMGWINTDSGVPTYADDFKGRFVFSLDTSVSTAYLQISSLKAEDTAVYFCARNIYYGWGNFDYWGQGTLVTVSS
VL: EIVMTQSPDFQSVTPKEKVTITCRASQDIYRNLHWYQQKPDQTPKLLIKHASDSISGIPSRFSGSGSGTDFTLTINSLEAEDAAAYYCLQGYSMPYTFGGGTKVEIKG
notes: human IgG1 N297G
Turning to B1, the binding result in assay [1] and in assay [2] was “no binding (tested: 1000 nM highest)” each time.

B2: 10G1 (clone 10G1.3G8), purified hybridoma antibody (antibody, V domains shown)
VH: QIQLVQSGPELKKPGETVKISCKASGYPFTTYGMSWVKQAPGKGLKWMGWINTDSGVPTYADDFKGRFAFSLETSANTAYLQINSLKNEDAATYFCARNIYYGWGNFDYWGQGTILTVSS
VL: DILMTQSPTTLSVTPGETVSLSCRASQDIYRNLHWYQQKSQGTPRLLIKHASDSISGIPSRFTGSGSGTDFTLSINSVKPEDEGIYYCLQGYSMPYTFGGGTKLEIK
notes: murine hybridoma IgG
A word on the EC50: it is the concentration that produces a half-maximal response. A higher EC50 goes with a need for much substance. For B2, the response in assay [3] was half-maximal at 232 nM (EC50).

B3: mAb1.v7 Fab (Fab, V domains shown)
VH: EVQLVQSGAEVKKPGASVKVSCKASGFTFTNNWMHWVRQAPGQGLEWIGMIHPNSGITNINEKFKNRVTMTTDTSTSTAYMELRSLRSEDTAVYYCRSDGTYEGYFDYWGQGTLVTVSS
VL: DIQLTQSPSSLSASVGDRVTITCKASQNVGTAIVWYQQKPGKAPKVLIYSASTRYTGVPSRFSGSGSGTDFTLTISSLQPEDFATYYCQQYSSSPLTFGQGTKVEIK
Regarding B3, in assay [4], the “apparent IC50 (pooled screen)” value stood at 0.74 nM. Besides, the “apparent Kd (pooled screen)” value in assay [5] is 76 nM.
